Measured values from article PMC12858348, “Structural basis underlying the autoinhibition of the formin FHOD1 and its phosphorylation-dependent activation” (The Journal of Biological Chemistry, 2025).

B1: His-tagged FHOD1-N3 (1–360) [human] / GST-fused FHOD1–DAD (1081–1145) [human] (parent complex)
chain 1: MAGGEDRGDGEPVSVVTVRVQYLEDTDPFACANFPEPRRAPTCSLDGALPLGAQIPAVHRLLGAPLKLEDCALQVSPSGYYLDTELSLEEQREMLEGFYEEISKGRKPTLILRTQLSVRVNAILEKLYSSSGPELRRSLFSLKQIFQEDKDLVPEFVHSEGLSCLIRVGAAADHNYQSYILRALGQLMLFVDGMLGVVAHSDTIQWLYTLCASLSRLVVKTALKLLLVFVEYSENNAPLFIRAVNSVASTTGAPPWANLVSILEEKNGADPELLVYTVTLINKTLAALPDQDSFYDVTDALEQQGMEALVQRHLGTAGTDVDLRTQLVLYENALKLEDGDIEEAPGAGGRRERRKPSSEE
chain 2: MPTVGPSTASPEEPPGSSLPSDTSDEIMDLLVQSVTKSSPRALAARERKRSRGNRKSLRRTLKSG

Variants of: B1
Assay: GST pull-down, SDS-PAGE, CBB staining, band quantification; parent: 100; read off a plot

| Variant | percent of parent |
| --- | --- |
| chain 2 MPTVGPSTASPEEPPGSSLPSDTSDEIMDLAVQSVTKSSPRALAARERKRSRGNRKSLRRTLKSG [chain 2 L31A] | ~97% |
| chain 2 MPTVGPSTASPEEPPGSSLPSDTSDEIADLLVQSVTKSSPRALAARERKRSRGNRKSLRRTLKSG [chain 2 M28A] | ~97% |

Next, values leading:

| percent of parent | Variant |
| --- | --- |
| ~95% | chain 2 MPTVGPSTASPEEPPGSSLPSDTSDEIMDLLAQSVTKSSPRALAARERKRSRGNRKSLRRTLKSG [chain 2 V32A] |
| ~96% | chain 2 MPTVGPSTASPEEPPGSSLPSDTSDEIMDLLVQSATKSSPRALAARERKRSRGNRKSLRRTLKSG [chain 2 V35A] |

Variants of: B1
Assay: as above
Remark: another data set of the same source

| Variant | percent of parent |
| --- | --- |
| chain 2 MPTVGPSTASPEEPPGSSLPSDTSDEIMDLLVQSVTKSSPRALAARERKRSRGNDKSLRRTLKSG [chain 2 R55D] | ~16% |
| chain 2 MPTVGPSTASPEEPPGSSLPSDTSDEIMDLLVQSVTKSSPRALAAREDKRSRGNRKSLRRTLKSG [chain 2 R48D] | ~26% |

The next lines start with the values.

| percent of parent | Variant |
| --- | --- |
| ~6% | chain 2 MPTVGPSTASPEEPPGSSLPSDTSDEIMDLLVQSVTKSSPRALAARERKRDRGNRKDLRRDLKSG [chain 2 S51D, chain 2 S57D, chain 2 T61D] |
| ~18% | chain 2 MPTVGPSTASPEEPPGSSLPSDTSDEIMDLLVQSVTKSSPRALAARERKRSRGNRKSLERTLKSG [chain 2 R59E] |

Variants of: B1
Assay: as above
Remark: another data set of the same source

| percent of parent | Variant |
| --- | --- |
| ~66% | chain 1 MAGGEDRGDGEPVSVVTVRVQYLEDTDPFACANFPEPRRAPTCSLDGALPLGAQIPAVHRLLGAPLKLEDCALQVSPSGYYLDTELSLEEQREMLEGFYEEISKGRKPTLILRTQLSVRVNAILEKLYSSSGPELRRSLFSLKQIFQEDKDLVPEFVHSEGLSCLIRVGAAADHNYQSYILRALGQLMLFVDGMLGVVAHSDTIQWLYTLCASLSRLVVKTALKLLLVFVEYSENNAPLFIRAVNSVASTTGAPPWANLVSILEEKNGADPELLVYTVTLINKTLAALPDQDSFYRVTDALEQQGMEALVQRHLGTAGTDVDLRTQLVLYENALKLEDGDIEEAPGAGGRRERRKPSSEE [chain 1 D296R] |
| ~52% | chain 1 MAGGEDRGDGEPVSVVTVRVQYLEDTDPFACANFPEPRRAPTCSLDGALPLGAQIPAVHRLLGAPLKLEDCALQVSPSGYYLDTELSLEEQREMLEGFYEEISKGRKPTLILRTQLSVRVNAILEKLYSSSGPELRRSLFSLKQIFQEDKDLVPEFVHSEGLSCLIRVGAAADHNYQSYILRALGQLMLFVDGMLGVVAHSDTIQWLYTLCASLSRLVVKTALKLLLVFVEYSENNAPLFIRAVNSVASTTGAPPWANLVSILEEKNGADPELLVYTVTLINKTLAALPRQDSFYDVTDALEQQGMEALVQRHLGTAGTDVDLRTQLVLYENALKLEDGDIEEAPGAGGRRERRKPSSEE [chain 1 D290R] |
| ~66% | chain 1 MAGGEDRGDGEPVSVVTVRVQYLEDTDPFACANFPEPRRAPTCSLDGALPLGAQIPAVHRLLGAPLKLEDCALQVSPSGYYLDTELSLEEQREMLEGFYEEISKGRKPTLILRTQLSVRVNAILEKLYSSSGPELRRSLFSLKQIFQEDKDLVPEFVHSEGLSCLIRVGAAADHNYQSYILRALGQLMLFVDGMLGVVAHSDTIQWLYTLCASLSRLVVKTALKLLLVFVEYSENNAPLFIRAVNSVASTTGAPPWANLVSILEEKNGADPELLVYTVTLINKTLAALPDQRSFYDVTDALEQQGMEALVQRHLGTAGTDVDLRTQLVLYENALKLEDGDIEEAPGAGGRRERRKPSSEE [chain 1 D292R] |
| ~28% | chain 1 MAGGEDRGDGEPVSVVTVRVQYLEDTDPFACANFPEPRRAPTCSLDGALPLGAQIPAVHRLLGAPLKLEDCALQVSPSGYYLDTELSLEEQREMLEGFYEEISKGRKPTLILRTQLSVRVNAILEKLYSSSGPELRRSLFSLKQIFQEDKDLVPEFVHSEGLSCLIRVGAAADHNYQSYILRALGQLMLFVDGMLGVVAHSDTIQWLYTLCASLSRLVVKTALKLLLVFVEYSENNAPLFIRAVNSVASTTGAPPWANLVSILEEKNGADPELLVYTVTLINKTLAALPDQDSFYDVTDALEQQGMEALVQRHLGTAGTDVDLRTQLVLYANALKLEDGDIEEAPGAGGRRERRKPSSEE [chain 1 E331A] |
